This data set deals with CsrA-His6. In words: EMSA. A general note: Mobility shift assays separate free from complexed probe on a gel.

A word on the Kd: it is a measure of binding affinity in units of concentration.

hmsE RNA 104 nt (GGA2 and GGA3) showed a Kd of 138 nM.

The record behind these values is article PMC10294631.
